From US11306156

Experiments:
[1] = target: tissue factor (TF) antigen (UniProt P13726); experiment: SPR KD against wild-type D3H44 Fab (reference KD 0.157 nM)
[2] = target: tissue factor (TF) antigen (UniProt P13726); experiment: SPR (ProteOn), Fab captured on anti-penta-His, TF analyte, 1:1 fit
[3] = target: tissue factor (TF) antigen (UniProt P13726); experiment: SPR, Fab captured on anti-penta His, TF injected
[4] = target: tissue factor (TF) antigen (UniProt P13726); experiment: SPR, Fab captured on anti-penta His surface, TF as analyte, 1:1 fit

Chain of tissue factor (TF) antigen (P13726 33-251 limits assumed): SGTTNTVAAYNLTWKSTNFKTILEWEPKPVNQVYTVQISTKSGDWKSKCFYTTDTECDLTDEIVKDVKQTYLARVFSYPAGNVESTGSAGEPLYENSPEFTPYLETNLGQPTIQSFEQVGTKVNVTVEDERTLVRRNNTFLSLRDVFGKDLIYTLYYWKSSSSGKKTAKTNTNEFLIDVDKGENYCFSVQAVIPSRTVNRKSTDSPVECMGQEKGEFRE

D3H44 Fab heterodimer, H: L124A_L143F_Q179K, L: Q124E_V133W_S176T_T178E_T180E (H1L1 Fab of LCCA set 9092)
Change in KD with respect to wild type (-(log(KD design) - log(KD wt))) [1]: -0.02 | Kd [2]: 160 pM

D3H44 Fab heterodimer, H: S186K, L: Q124E_T178E (H1L1 Fab of LCCA set 9850)
Change in KD with respect to wild type (-(log(KD design) - log(KD wt))) [1]: 0.01 | Kd [2]: 150 pM

D3H44 Fab heterodimer, H: Q179K, L: Q124E_T178E_T180E (H1L1 Fab of LCCA set 9786)
Change in KD with respect to wild type (-(log(KD design) - log(KD wt))) [1]: 0.1 | Kd [2]: 130 pM

D3H44 Fab heterodimer, H: A139C_L143E_K145T_Q179E, L: F116C_Q124R_T178R (H1L1 Fab of LCCA set 9049)
Change in KD with respect to wild type (-(log(KD design) - log(KD wt))) [1]: -0.01 | Kd [2]: 160 pM

D3H44 Fab heterodimer, H: L143K, L: Q124E_V133D (H1L1 Fab of LCCA set 9731)
Change in KD with respect to wild type (-(log(KD design) - log(KD wt))) [1]: -0.26 | Kd [2]: 280 pM

D3H44 Fab heterodimer, H: S186K, L: Q124E_Q160E_T180E (H1L1 Fab of LCCA set 9838)
Change in KD with respect to wild type (-(log(KD design) - log(KD wt))) [1]: 0.09 | Kd [2]: 130 pM

D3H44 Fab heterodimer, H: Q179R, L: Q124E_T178E_T180E (H1L1 Fab of LCCA set 9812)
Change in KD with respect to wild type (-(log(KD design) - log(KD wt))) [1]: -0.01 | Kd [2]: 160 pM

D3H44 Fab heterodimer H L124E_L143E_K145T / L Q124K_V133G_Q160K_S176R (H1L1 Fab of LCCA Set # 9275)
Change in KD with respect to wild type (-(log(KD design) - log(KD wt))) [3]: -0.12 | Kd [3]: 200 pM

D3H44 Fab heterodimer, H: L124A_L143F_Q179K, L: Q124E_V133W_S176T_T178L_T180E (H1L1 Fab of LCCA set 9096)
Change in KD with respect to wild type (-(log(KD design) - log(KD wt))) [1]: -0.04 | Kd [2]: 170 pM

D3H44 Fab heterodimer H L124R_D146N_Q179K / L V133G_S176D_T178E_T180E (H1L1 Fab of LCCA Set # 9359)
Change in KD with respect to wild type (-(log(KD design) - log(KD wt))) [3]: -0.01 | Kd [3]: 160 pM

D3H44 Fab heterodimer, H: Q179K, L: Q124E_Q160E_T178E (H1L1 Fab of LCCA set 9758)
Change in KD with respect to wild type (-(log(KD design) - log(KD wt))) [1]: -0.27 | Kd [2]: 290 pM

D3H44 Fab heterodimer, H: L124W_L143F_K145T_Q179E, L: S131K_V133A_S176T_T178L (H1L1 Fab of LCCA sets 9571 and 9572)
Change in KD with respect to wild type (-(log(KD design) - log(KD wt))) [1]: -0.21 | Kd [2]: 260 pM

D3H44 Fab heterodimer H L124R_S186K / L V133G_S176D_T178D_T180E (H1L1 Fab of LCCA Set # 9473)
Change in KD with respect to wild type (-(log(KD design) - log(KD wt))) [3]: -0.07 | Kd [3]: 180 pM

D3H44 Fab heterodimer H L124E_L143D_K145T / L Q124K_V133G_S176R_T178R (H1L1 Fab of LCCA Set # 9229, 9225, 9228)
Change in KD with respect to wild type (-(log(KD design) - log(KD wt))) [3]: -0.02 | Kd [3]: 160 pM

D3H44 Fab heterodimer H L124E_L143E_K145M / L Q124K_V133G_S176R_T178R (H1L1 Fab of LCCA Set # 9270)
Change in KD with respect to wild type (-(log(KD design) - log(KD wt))) [3]: -0.29 | Kd [3]: 310 pM

D3H44 Fab heterodimer, H1L1 of LCCA Sets # 9076, 9077 and 9078 (H1 H172T_Q179K; L1 Q124E_N137K_Q160E_S174R_T180E)
Change in KD with respect to wild type (-(log(KD design) - log(KD wt))) [4]: 0.01 | Kd [4]: 150 pM

D3H44 Fab heterodimer H L124R_D146N_Q179K / L Q124E_V133G_S176D_T178E_T180E (H1L1 Fab of LCCA Set # 9350, 9351)
Change in KD with respect to wild type (-(log(KD design) - log(KD wt))) [3]: -0.1 | Kd [3]: 200 pM

D3H44 Fab heterodimer H L124R_Q179K / L Q124E_V133G_S176D_T178E_T180E (H1L1 Fab of LCCA Set # 9384, 9388)
Change in KD with respect to wild type (-(log(KD design) - log(KD wt))) [3]: -0.15 | Kd [3]: 220 pM

D3H44 Fab heterodimer, H1L1 of LCCA Sets # 9558 and 9559 (H1 L124W_L143E_K145T_Q179E; L1 Q124K_V133A_S176T_T178R)
Change in KD with respect to wild type (-(log(KD design) - log(KD wt))) [4]: -0.24 | Kd [4]: 270 pM

D3H44 Fab heterodimer H L124E_L143D_K145M / L Q124K_V133G_Q160K_S176R (H1L1 Fab of LCCA Set # 9170)
Change in KD with respect to wild type (-(log(KD design) - log(KD wt))) [3]: -0.24 | Kd [3]: 270 pM

D3H44 Fab heterodimer H L124R_Q179K / L V133G_S176D_T178E_T180E (H1L1 Fab of LCCA Set # 9426)
Change in KD with respect to wild type (-(log(KD design) - log(KD wt))) [3]: -0.16 | Kd [3]: 230 pM

D3H44 Fab heterodimer H L124E_H172T / L V133G_N137K_S174R_S176R (H1L1 Fab of LCCA Set # 9121)
Change in KD with respect to wild type (-(log(KD design) - log(KD wt))) [3]: 0.08 | Kd [3]: 130 pM

D3H44 Fab heterodimer H L124R_S186K / L V133G_S176D_T178E_T180E (H1L1 Fab of LCCA Set # 9489)
Change in KD with respect to wild type (-(log(KD design) - log(KD wt))) [3]: -0.17 | Kd [3]: 230 pM

D3H44 Fab heterodimer, H1L1 of LCCA Sets # 9090, 9091 and 9092 (H1 L124A_L143F_Q179K; L1 Q124E_V133W_S176T_T178E_T180E)
Change in KD with respect to wild type (-(log(KD design) - log(KD wt))) [4]: -0.02 | Kd [4]: 160 pM

D3H44 Fab heterodimer, H1L1 of LCCA Set # 9822 (H1 Q39R_D146G_Q179K; L1 Q38E_Q124E_Q160E_T180E)
Change in KD with respect to wild type (-(log(KD design) - log(KD wt))) [4]: 0.17 | Kd [4]: 110 pM

D3H44 Fab heterodimer, H1L1 of LCCA Set # 9818 (H1 Q39E_L143E_K145T_H172R; L1 Q38R_Q124R_Q160K_T178R)
Change in KD with respect to wild type (-(log(KD design) - log(KD wt))) [4]: -0.07 | Kd [4]: 180 pM

D3H44 Fab heterodimer, H1L1 of LCCA Set # 9823 (H1 Q39R_H172R_Q179K; L1 Q38E_Q124E_Q160E_T180E)
Change in KD with respect to wild type (-(log(KD design) - log(KD wt))) [4]: -0.18 | Kd [4]: 240 pM

D3H44 Fab heterodimer H L124E_L143D_K145M / L Q124K_V133G_S176R_T178K (H1L1 Fab of LCCA Set # 9178, 9179)
Change in KD with respect to wild type (-(log(KD design) - log(KD wt))) [3]: -0.15 | Kd [3]: 220 pM

D3H44 Fab heterodimer, H1L1 of LCCA Set # 9754 (H1 L45P_L143E_K145T_Q179E; L1 P44F_Q124R_Q160K_T178R)
Change in KD with respect to wild type (-(log(KD design) - log(KD wt))) [4]: -0.28 | Kd [4]: 300 pM

D3H44 Fab heterodimer H L124R_S186K / L Q124E_V133G_S176D_T178D_T180E (H1L1 Fab of LCCA Set # 9461)
Change in KD with respect to wild type (-(log(KD design) - log(KD wt))) [3]: -0.23 | Kd [3]: 260 pM

D3H44 Fab heterodimer H L124E_L143E_K145M / L Q124K_V133G_Q160K_S176R (H1L1 Fab of LCCA Set # 9247)
Change in KD with respect to wild type (-(log(KD design) - log(KD wt))) [3]: -0.26 | Kd [3]: 280 pM

D3H44 Fab heterodimer, H1L1 of LCCA Sets # 9094, 9095 and 9096 (H1 L124A_L143F_Q179K; L1 Q124E_V133W_S176T_T178L_T180E)
Change in KD with respect to wild type (-(log(KD design) - log(KD wt))) [4]: -0.04 | Kd [4]: 170 pM

D3H44 Fab heterodimer H L124E_L143D_K145T / L Q124K_V133G_S176R_T178K (H1L1 Fab of LCCA Set # 9220, 9216)
Change in KD with respect to wild type (-(log(KD design) - log(KD wt))) [3]: -0.08 | Kd [3]: 190 pM
